From article PMC8074050

Target: nominally empty recombinant adeno-associated virus 5 capsid (adeno-associated virus 5 (recombinant, rAAV5)) (UniProt Q9YIJ1)
Assay: SEC-MALS; Superose 6 Increase (10/300), phosphate-buffered saline as mobile phase, 0.8 mL/min, column and detectors at 30 °C, samples kept at 4 °C before injection; RI, UV and RALS/LALS detection; whole capsid with whole capsid (dimer of capsids)

nominally empty recombinant adeno-associated virus 5 capsid (from UniProt Q9YIJ1 1-724) (complex)
fraction of sample (%) in the dimer peak: 7.2%
stoichiometry N: 2
